Assay results: patent publication US20200199207A1 (MABYLON, published 2020)

T1: Ara h 2 (peanut, UniProt Q6PSU2 22-172)
T1 construct: also called full length Ara h 2
T1 sequence (looked up): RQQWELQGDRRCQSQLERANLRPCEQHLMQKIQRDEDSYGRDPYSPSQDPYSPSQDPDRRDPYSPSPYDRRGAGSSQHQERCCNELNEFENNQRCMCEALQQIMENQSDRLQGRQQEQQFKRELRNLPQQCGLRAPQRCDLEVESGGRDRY

T2: nBet v 1 (UniProt P15494 2-160)
T2 sequence (looked up): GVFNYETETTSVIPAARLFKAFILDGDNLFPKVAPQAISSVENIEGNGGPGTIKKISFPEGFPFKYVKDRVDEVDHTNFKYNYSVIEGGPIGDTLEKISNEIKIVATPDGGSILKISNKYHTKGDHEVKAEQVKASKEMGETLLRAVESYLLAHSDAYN

T3: nAra h 2 (peanut, UniProt Q6PSU2 22-172)
T3 construct: Bought natural allergen; also called naturally extracted Ara h 2
T3 sequence (looked up): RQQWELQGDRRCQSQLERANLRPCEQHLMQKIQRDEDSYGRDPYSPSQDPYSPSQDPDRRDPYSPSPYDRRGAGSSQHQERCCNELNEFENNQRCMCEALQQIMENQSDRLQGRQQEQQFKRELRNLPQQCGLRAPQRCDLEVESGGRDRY

T4: nAra h 1 (peanut, UniProt P43238 85-626)
T4 construct: Bought natural allergen; also called naturally extracted Ara h 1
T4 sequence (looked up): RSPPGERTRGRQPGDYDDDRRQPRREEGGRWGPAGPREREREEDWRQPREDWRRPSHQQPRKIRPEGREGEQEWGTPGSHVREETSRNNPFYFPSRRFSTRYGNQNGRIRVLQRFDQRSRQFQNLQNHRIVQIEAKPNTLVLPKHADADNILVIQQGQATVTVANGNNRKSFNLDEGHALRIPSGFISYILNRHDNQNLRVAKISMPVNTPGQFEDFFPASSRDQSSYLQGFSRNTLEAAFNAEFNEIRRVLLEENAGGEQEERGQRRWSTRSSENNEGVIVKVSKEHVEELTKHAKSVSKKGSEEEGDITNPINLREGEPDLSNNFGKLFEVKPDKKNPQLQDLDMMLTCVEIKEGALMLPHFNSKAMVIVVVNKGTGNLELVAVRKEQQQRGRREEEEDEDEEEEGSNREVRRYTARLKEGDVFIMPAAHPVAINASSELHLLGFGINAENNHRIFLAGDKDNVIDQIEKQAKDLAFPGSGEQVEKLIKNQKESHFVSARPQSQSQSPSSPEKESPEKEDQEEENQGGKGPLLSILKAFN

T5: nAra h 6 (peanut, UniProt Q647G9 22-145)
T5 construct: Bought natural allergen; also called naturally extracted Ara h 6
T5 sequence (looked up): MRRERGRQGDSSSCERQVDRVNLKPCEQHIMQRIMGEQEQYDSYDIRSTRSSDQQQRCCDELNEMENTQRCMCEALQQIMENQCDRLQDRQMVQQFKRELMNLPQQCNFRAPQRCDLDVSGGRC


What was measured:
[1] = biological target: T1, Ara h 2; assay: competition ELISA on coated Ara h 2; competitor: Patient C serum IgE
Description: (§1) Microplates were coated with […] of Ara h 1, Ara h 2, Ara h 3, or Ara h 6, overnight at 4° C. After washing with PBS-Tween 0.05% and blocking with 2% BSA, plates were incubated with increasing concentrations of peanut human IgG antibodies for 1 h at room temperature. Subsequently, plates were incubated with different sera dilutions or different concentrations of murine antibody (as positive control). IgE levels were detected using anti-human HRP-conjugated Fc-epsilon-specific secondary antibody (Abcam, Cambridge, UK) followed by addition of TMB solution (TMB, Sigma, Buchs, Switzerland). Binding of murine antibodies was detected using goat anti-mouse IgG (H+L)-HRP (Jackson ImmunoResearch, West Grove, Pa., USA).

[2] = biological target: T1, Ara h 2; assay: competition ELISA on coated Ara h 2; competitor: Patient B serum IgE
Description: as §1

[3] = biological target: T2, nBet v 1; assay: ELISA, antigen-coated plate
Description: (§2) EC50 binding of exemplary anti-peanut antibodies of the present invention to peanut allergens or peanut extract, was determined by ELISA. Serial dilutions of MAbs (from 1000 ng/ml down to 0.0169 ng/ml) were incubated for 2 hours with antigen-coated plates (coating overnight at 4° C. or 1 h at 37° C. with 1 μg/ml antigen in PBS, followed by wash out and blocking with 2% BSA in PBS). The plates were subsequently washed and binding of MAbs was detected with anti-human HRP-conjugated Fc-gamma-specific secondary antibody (Jackson ImmunoResearch, West Grove, Pa., USA). Concentrations of MAb resulting in half of maximal binding to respective antigens (EC50, ng/ml) were calculated using GraphPad Prism 5 software on sigmoidal dose-response curves (variable slope, 4 parameters) obtained by plotting the log of the concentration versus OD450 nm measurements; for the results see FIG. 3 and table 2.

[4] = biological target: T3, nAra h 2; assay: ELISA, antigen-coated plate
Description: as §2

[5] = biological target: T4, nAra h 1; assay: ELISA, antigen-coated plate
Description: as §2

[6] = biological target: T5, nAra h 6; assay: ELISA, antigen-coated plate
Description: as §2

[7] = biological target: T6, nAra h 3 (peanut); assay: ELISA, antigen-coated plate
T6 construct: Bought natural allergen; also called naturally extracted Ara h 3
Description: as §2

[8] = biological target: T1, Ara h 2; assay: competition ELISA on coated Ara h 2; competitor: Patient G serum IgE
Description: as §1

[9] = biological target: T1, Ara h 2; assay: competition ELISA on coated Ara h 2; competitor: Patient F serum IgE
Description: as §1

[10] = biological target: T1, Ara h 2; assay: competition ELISA on coated Ara h 2; competitor: Patient E serum IgE
Description: as §1

[11] = biological target: T1, Ara h 2; assay: competition ELISA on coated Ara h 2; competitor: Patient A serum IgE
Description: as §1

[12] = biological target: T1, Ara h 2; assay: competition ELISA on coated Ara h 2; competitor: Patient D serum IgE
Description: as §1

[13] = biological target: T1, Ara h 2; assay: competition ELISA on coated Ara h 2; control: Healthy donor serum
Description: as §1

Binder | % inhibition of IgE binding [1] [%] | % inhibition of IgE binding [2] [%] | binding result [3] | EC50 [4] [ng/mL] | EC50 [5] [ng/mL] | EC50 [6] [ng/mL] | EC50 [7] [ng/mL] | % inhibition of IgE binding [8] [%] | % inhibition of IgE binding [9] [%] | % inhibition of IgE binding [10] [%] | % inhibition of IgE binding [11] [%] | % inhibition of IgE binding [12] [%] | % inhibition of IgE binding [13] [%]
h37D5 (antibody, V domains shown, Recombinant human IgG; also called hMAb 37D5) VH: EEQLVESGGRLLRPGESLSLSCAAVGFNFGDFGMAWVRQPPGKGLEWVAGINWSGHSTGFVDSMKGRLTISRDSAKSSLFLQMNSLRGEDTAVYYCARVGRLCSGDICDSMGAFDLWGQGTMVTVSS VL: DIQMTQSPSTLSASIGDRVTITCRASQTIDNWLAWYQQRPGKAPKLLIYQASSLQSGVSSRFRGSGSGTEFTLTITSLQPDDFATYYCQKSNGYSRTFGQGTKVEIK | ~55.1 | 29.6 | no binding (tested: 1000 ng/ml) | 5.6 | 264 | 22.1 | 65.2 | 45.3 | 36.2 | 29.3 | 27.8 | 35.5 | 2.27
h4B2 (antibody, V domains shown, Recombinant human IgG; also called hMAb 4B2) VH: QVQLQEAGPRLVKPSQTLSVTCTVSGASITIGGYYWSWIRQHPGKGLEWMGYIYSNGRTYYNPSLKSRIAMSIDTSKNQFSLKLTSVTAADTAIYFCAREAWETPLWGQGTLITVSS VL: DIQMTQSPSSLSASVGDRVTITCQANQDIVNSLNWFQHKPGTAPKVLIYDASKLETGVPSRFSGSGSGTHFTFTISGLQPEDFATYFCQQYENLPHTFGQGTKLEIR | 13.3 | 30.6 | no binding (tested: 1000 ng/ml) | 6.7 | 5.9 | 7 |  | 31.8 | 30.8 | 21.9 | 39.7 | 9.23 | 0
h32B10 (antibody, V domains shown, Recombinant human IgG; also called hMAb 32B10) VH: QVQLVQSGAEVKKPGASVKVSCRASGYIFRNFDINWVRQATGQGLEWMGWMSPKSGDTGYAQKFQGRVTMTRDTSINTAYMELSSLTSEDSAVYYCARGVDGTNWGQGTRVTVSS VL: DIVMTQSPDSLGVSLGERATISCKSSQSILDNSNNKNFIAWFQQKPGQPPKLLIYWASARESGVPDRFSGSGSGTEFTLTINSLQAEDVAVYYCYQYYSTPHTFGQGTKLDLR | 21 | 26.7 | no binding (tested: 1000 ng/ml) | 9.2 | 8.8 | 7 | 4.9 | 32.8 | 23.1 | 29.3 | 27.8 | 8.5 | 0

Next, values leading:

% inhibition of IgE binding [1] [%] | % inhibition of IgE binding [2] [%] | binding result [3] | EC50 [4] [ng/mL] | EC50 [5] [ng/mL] | EC50 [6] [ng/mL] | EC50 [7] [ng/mL] | % inhibition of IgE binding [8] [%] | % inhibition of IgE binding [9] [%] | % inhibition of IgE binding [10] [%] | % inhibition of IgE binding [11] [%] | % inhibition of IgE binding [12] [%] | % inhibition of IgE binding [13] [%] | Binder
53.8 | 31.2 | no binding (tested: 1000 ng/ml) | 6.8 | 242 | 17.2 | 33.7 | 25.7 | 45.3 | 36.2 | 13.8 | 35.7 | 0 | h12G10 (antibody, human IgG1, V domains shown, Recombinant human IgG; also called hMAb 12G10) VH: EVQLLESGGRLLRPGGSLSLSCVASGFYFGDFGMSWVRQVPGKGLEWVSGIDWSGRSTGYVDSMKGRLTISRDNDKSSLYLQMNDLRGEDTAVYYCARVGRLCSGDSCDSMGAFDLWGQGTMVTVSS VL: DIQLTQSPSTLSASIGDSVTITCRASQNIDNWLAWYQQKPGKAPRLLIYKASSLGSGVSSKFRGSGFGTEFTLTITSLQPDDFATYYCQKSNGYSRTFGQGTKVDIK
 |  | no binding (tested: 1000 ng/ml) | 5.6 | 8.5 | 3.4 | 2.8 |  |  |  |  |  |  | h2F8 (antibody, V domains shown, Recombinant human IgG; also called hMAb 2F8) VH: EVQLVESGGGLVKPGGSLRLSCAASGFIFSDYNMNWVRQAPGKGLEWVSSITRSSRTIYYADSVKGRFTISRDNAKNSLHLQMNSLRDADTAVYYCAREDFDVSTGPYYMDVWGNGTTVIVSS VL: EIVLTQSPGTLSLSPGERATLSCRASQSVSNMFLVWYQQKPGQAPRLLMYGASTRATDIPDRFSGSGSGTDFTLTISRLEPEDFAVYYCQQNGNSPYTFGQGTKLEIK
 |  | no binding (tested: 1000 ng/ml) | 4.7 | 1.9 | 2.6 | 1.3 |  |  |  |  |  |  | h7G6 (antibody, V domains shown, Recombinant human IgG; also called hMAb 7G6) VH: QVQLVESGGGVVQPGRSLRLSCAASGIAFNDYTMHWVRRSPDKGLEWVAAISYGGTNKYYADSVKGRFTISRDSSKNTLFLQMDSLRVEDTAVYYCARDSGYRSLLHWGQGTLVTVSS VL: EIVLTQSPLSLPVTPGEPASISCRSSQSLVHRNGYNYLDWYLQKPGQSPQLLIYMASKRASGVPDRFSGSGSGTEFTLKISRVEAEDVGIYYCMQALQTWTFGQGTKVEVN
